This note sets out measurements from article PMC6440998, “Tunable microsecond dynamics of an allosteric switch regulate the activity of a AAA+ disaggregation machine” (Nature Communications, 2019).

First the molecules themselves.
B1: Thermus thermophilus ClpB, wild type (natural protein)
chain: not shown
notes: ClpB of Thermus thermophilus, cloned into pET28b with a six-histidine tag preceded by a TEV site; Homohexamer; also called TT ClpB; WT; source: E. coli BL21 (DE3) pLysS, purified (Ni-NTA, HiPrep DEAE FF)
B2: ClpB S428C-S771C, double-labeled subunit (natural protein)
chain: not shown
modifications: Alexa 488 C5 maleimide (donor) and Alexa 594 C5 maleimide (acceptor) on the cysteines at 428 and 771
notes: ClpB of Thermus thermophilus with two cysteines for the dyes; S428C-S771C is the main construct; also called double-labeled subunits; labeled ClpB; source: E. coli BL21 (DE3) pLysS, purified (Ni-NTA, HiPrep DEAE FF), labeled

Data set [1] deals with the molecule itself. Briefly: not stated; test of hexamer assembly shown in Supplementary Figs. 3 and 13 and the supplementary section “Validating the structural integrity of ClpB hexamers”; 2 mM ATP for the labeled sample.
Data set [2] has as its target B1. Description: native gel or EMSA + SEC; native gel electrophoresis and gel filtration chromatography of reassembled mixed labeled ClpB and of the WT. The conditions noted are these: both partners purified. On the technique in general: In EMSA bound probe runs differently from free probe, usually more slowly.

Broadly, the stoichiometry N is the number of molecules, sites or subunits per partner or assembly. Consider B1, for which the “stoichiometry N” value in data set [1] worked out at 6.

With B2, the binding result in data set [2] was “binds”.
